Data taken from patent US20090047285A1 (ONCOMED PHARMACEUTICALS, published 2009).

Key:
[1] = biological target: T1, hNotch1 glutamate ligand binding region protein (EGF10-15), immobilized on a CM5 chip (human, UniProt P46531 375-601); assay: Biacore 2000, Notch EGF10-15 protein on CM5 chip, antibody 25 to 0.20 nM
T1 construct: domain: EGF10-15
Experimental: (§1) The KD's of certain anti-Notch glutamate ligand binding region antibodies were determined using the Biacore 2000 system from Biacore Lifesciencse (GE Healthcare). Specifically, purified anti-Notch glutamate ligand binding region antibodies were serially diluted in 2-fold increments from 25 to 0.20 nM in PBS with HBS-P (0.01 M HEPES pH 7.4, 0.15 M NaCl, 0.005% v/v Surfactant P20). Each dilution was tested against Notch glutamate ligand binding region proteins (EGF10-15) immobilized onto a CM5 Biacore chip. The association and dissociation rates were measured and KD values determined using the Biaevaluation software program. NB in the table below means a binding affinity as measured by a KD that is at least ten-fold weaker than the notch-ligand (delta-like ligand) affinity constant.

mNotch3(EGF9-14)Fc = biological target: T2, mNotch3(EGF9-14)Fc (mouse, UniProt Q61982 352-581); assay: survey of fAbs after phage display selection on mNotch3(EGF9-14)Fc
T2 construct: domain: EGF9-14; also called murine Notch3; selected antigen; not shown: Fc
T2 sequence (looked up): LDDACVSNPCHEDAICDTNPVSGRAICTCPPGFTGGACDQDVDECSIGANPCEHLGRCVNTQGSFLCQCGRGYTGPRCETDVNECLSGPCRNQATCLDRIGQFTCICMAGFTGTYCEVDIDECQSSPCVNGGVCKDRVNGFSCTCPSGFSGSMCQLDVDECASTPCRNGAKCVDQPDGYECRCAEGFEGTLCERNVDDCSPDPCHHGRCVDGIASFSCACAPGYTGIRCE

[2] = biological target: T3, full length Notch1 E424Q, expressed on HEK 293 cells (human, UniProt P46531 19-2555); assay: FACS on transfected HEK 293 cells (FIG. 5)
T3 construct: whole, on cells; also called mutated receptor (E424Q)
T3 sequence (P46531 19-2555 E424Q): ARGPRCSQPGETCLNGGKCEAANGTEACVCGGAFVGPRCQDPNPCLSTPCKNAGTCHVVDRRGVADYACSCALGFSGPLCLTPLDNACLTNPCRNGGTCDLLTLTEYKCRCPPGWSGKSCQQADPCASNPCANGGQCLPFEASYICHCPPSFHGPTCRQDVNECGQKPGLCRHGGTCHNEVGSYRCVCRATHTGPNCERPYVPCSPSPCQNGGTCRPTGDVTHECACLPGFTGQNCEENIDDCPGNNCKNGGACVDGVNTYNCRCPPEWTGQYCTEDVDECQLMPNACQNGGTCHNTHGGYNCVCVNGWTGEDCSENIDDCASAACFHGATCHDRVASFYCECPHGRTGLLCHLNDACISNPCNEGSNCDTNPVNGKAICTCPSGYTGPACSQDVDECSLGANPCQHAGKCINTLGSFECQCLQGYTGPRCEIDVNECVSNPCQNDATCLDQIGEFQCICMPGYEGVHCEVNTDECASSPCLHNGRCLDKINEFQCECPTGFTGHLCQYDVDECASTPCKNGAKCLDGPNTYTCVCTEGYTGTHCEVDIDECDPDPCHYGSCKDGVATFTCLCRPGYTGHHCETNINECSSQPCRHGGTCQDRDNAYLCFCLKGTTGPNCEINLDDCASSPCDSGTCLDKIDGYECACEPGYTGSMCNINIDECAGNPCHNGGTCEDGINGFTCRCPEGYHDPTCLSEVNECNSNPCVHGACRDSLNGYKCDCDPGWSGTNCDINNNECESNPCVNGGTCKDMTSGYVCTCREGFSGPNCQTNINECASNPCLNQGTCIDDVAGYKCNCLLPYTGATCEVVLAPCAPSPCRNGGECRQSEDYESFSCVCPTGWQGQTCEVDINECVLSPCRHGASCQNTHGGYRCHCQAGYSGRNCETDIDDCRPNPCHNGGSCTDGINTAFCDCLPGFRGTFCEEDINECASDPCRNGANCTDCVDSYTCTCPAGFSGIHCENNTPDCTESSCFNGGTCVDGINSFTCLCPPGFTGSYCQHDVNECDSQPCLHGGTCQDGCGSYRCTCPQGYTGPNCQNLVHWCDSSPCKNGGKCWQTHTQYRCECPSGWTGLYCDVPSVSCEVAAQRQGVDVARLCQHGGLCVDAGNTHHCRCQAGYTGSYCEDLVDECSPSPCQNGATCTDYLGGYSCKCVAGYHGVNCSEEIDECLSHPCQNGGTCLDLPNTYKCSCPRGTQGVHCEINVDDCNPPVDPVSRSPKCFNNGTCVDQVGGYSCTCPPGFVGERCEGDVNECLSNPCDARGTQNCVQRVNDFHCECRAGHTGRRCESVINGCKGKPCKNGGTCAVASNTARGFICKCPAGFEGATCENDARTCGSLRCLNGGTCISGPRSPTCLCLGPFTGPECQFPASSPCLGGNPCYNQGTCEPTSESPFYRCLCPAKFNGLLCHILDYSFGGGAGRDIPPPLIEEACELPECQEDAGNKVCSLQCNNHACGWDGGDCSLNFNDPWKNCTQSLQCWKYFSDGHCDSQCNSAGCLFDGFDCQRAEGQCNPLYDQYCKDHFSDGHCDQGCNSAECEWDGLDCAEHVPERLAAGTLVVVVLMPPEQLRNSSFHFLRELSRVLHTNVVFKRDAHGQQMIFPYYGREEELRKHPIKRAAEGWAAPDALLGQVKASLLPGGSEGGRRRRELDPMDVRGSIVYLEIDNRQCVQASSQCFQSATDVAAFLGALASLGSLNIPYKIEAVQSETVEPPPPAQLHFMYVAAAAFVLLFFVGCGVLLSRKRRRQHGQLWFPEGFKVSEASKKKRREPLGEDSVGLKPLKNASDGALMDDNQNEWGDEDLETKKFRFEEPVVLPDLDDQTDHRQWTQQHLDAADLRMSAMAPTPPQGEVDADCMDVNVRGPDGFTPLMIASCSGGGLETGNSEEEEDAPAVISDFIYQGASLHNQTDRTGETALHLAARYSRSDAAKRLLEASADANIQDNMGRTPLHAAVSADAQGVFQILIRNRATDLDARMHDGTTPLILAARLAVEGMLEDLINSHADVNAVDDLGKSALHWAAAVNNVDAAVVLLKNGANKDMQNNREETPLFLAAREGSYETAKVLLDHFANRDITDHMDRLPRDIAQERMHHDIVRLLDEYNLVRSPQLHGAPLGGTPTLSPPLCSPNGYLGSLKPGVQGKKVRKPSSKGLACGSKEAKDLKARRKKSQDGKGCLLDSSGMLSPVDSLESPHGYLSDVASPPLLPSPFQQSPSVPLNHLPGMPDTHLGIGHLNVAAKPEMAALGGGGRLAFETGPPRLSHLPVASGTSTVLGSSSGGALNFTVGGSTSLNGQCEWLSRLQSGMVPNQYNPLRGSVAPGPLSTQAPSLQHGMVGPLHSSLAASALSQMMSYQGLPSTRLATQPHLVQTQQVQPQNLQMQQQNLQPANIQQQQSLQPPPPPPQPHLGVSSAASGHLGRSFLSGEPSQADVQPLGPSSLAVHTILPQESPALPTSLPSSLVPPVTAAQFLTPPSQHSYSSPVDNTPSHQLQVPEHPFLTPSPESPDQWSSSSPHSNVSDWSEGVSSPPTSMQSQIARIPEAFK

[3] = biological target: T4, hNotch3 glutamate ligand binding region protein (EGF10-15 as printed), immobilized on a CM5 chip (human, UniProt Q9UM47 351-580); assay: Biacore 2000, Notch ligand binding region protein on CM5 chip, antibody 25 to 0.20 nM
T4 construct: domain: EGF10-15; For Notch3 the equivalent repeats would be EGF9-14
T4 sequence (looked up): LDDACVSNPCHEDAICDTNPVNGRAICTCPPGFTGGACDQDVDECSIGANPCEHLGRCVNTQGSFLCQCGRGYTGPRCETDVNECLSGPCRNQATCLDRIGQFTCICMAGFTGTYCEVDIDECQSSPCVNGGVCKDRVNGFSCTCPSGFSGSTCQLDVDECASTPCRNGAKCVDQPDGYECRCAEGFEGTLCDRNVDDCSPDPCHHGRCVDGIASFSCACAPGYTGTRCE
Experimental: as §1

[4] = biological target: T5, mNotch1 glutamate ligand binding region protein (EGF10-15), immobilized on a CM5 chip (mouse, UniProt Q01705 375-601); assay: Biacore 2000, Notch EGF10-15 protein on CM5 chip, antibody 25 to 0.20 nM
T5 construct: domain: EGF10-15
T5 sequence (looked up): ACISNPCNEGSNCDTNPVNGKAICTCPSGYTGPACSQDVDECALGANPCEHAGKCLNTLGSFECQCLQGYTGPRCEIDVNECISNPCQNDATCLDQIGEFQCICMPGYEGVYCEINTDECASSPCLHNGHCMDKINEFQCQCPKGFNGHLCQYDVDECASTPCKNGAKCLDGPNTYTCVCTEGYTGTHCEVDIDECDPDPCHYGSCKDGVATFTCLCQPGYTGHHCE
Experimental: as §1

B1: 122R5 (Fab, V domains shown)
VH: QVQLVESGGGLVQPGGSLRLSCAASGFTFSDNAIHWVRQAPGKGLEWVSAISSYGSGTYYADSVKGRFTISRDNSKNTLYLQMNSLRAEDTAVYYCARPGFQFSFTFMDIWGQGTLVTVSS
VL: DIELTQPPSVSVAPGQTARISCSGDALGSKYASWYQQKPGQAPVLVIYDDKNRPSGIPERFSGSNSGNTATLTISGTQAEDEADYYCQSWDGKSKVVFGGGTKLTVLG
notes: Human fAb from phage display; also called fAb122R5; lead fAb, 122R5
Kd [1]: 4.25 nM | binding result (mNotch3(EGF9-14)Fc): binds | binding result [2]: no binding | Kd [3]: < 0.1 nM

B2: 90R21 (antibody, V domains shown)
VH: EVQLLESGGGLVQPGGSLRLSCAASGFTFSNYGMSWVRQAPGKGLEWVSSISGYGSNTYYADSVKGRFTISRDNSKNTLYLQMNSLRAEDTAVYYCARISQQAVWGQGTLVTVSS
VL: QSALTQPASVSGSPGQSITISCTGTSSDIGGYQYVSWYQQHPGKAPKLMIYYVSNRPSGVSNRFSGSKSGNTASLTISGLQAEDEADYYCQSADSSSWVFGGGTKLTVLG
notes: also called ATCC deposit No. PTA-8909
Kd [4]: 0.25 nM | Kd [1]: < 0.1 nM
